Reference: US7211424B1, “Mammalian Subtilisin/kexin isozyme SKI-1: a proprotein convertase with a unique cleavage specificity” (Institut de Recherches Cliniques de Montreal, priority 1999, dated 2007)
Where no end group is shown, it is not given here. [ ]: non-standard residue; d: D form. Tyr(3-NO2) = N[C@@H](Cc1ccc(O)c([N+](=O)[O-])c1)C(=O)O; 2Abz = Nc1ccccc1C(=O)O

Legend:
BTMD-SKI-1 = molecular target: T1, BTMD-SKI-1 (human, UniProt Q14703 187-997); test: Ki(app) from Dixon plots; inhibition of peptide IV hydrolysis by BTMD-SKI-1 medium (RP-HPLC), prosegment preincubated with the enzyme for 30 min
T1 construct: The construct encodes aa 1-997 plus hexa-His; It was secreted from VV-infected BSC40 or LoVo cells and used as concentrated medium or after metal chelation purification; The secreted enzyme stays associated with the ~14 kDa prosegment fragment; also called bSKI-1; BTMD-hSKI-1
T1 sequence: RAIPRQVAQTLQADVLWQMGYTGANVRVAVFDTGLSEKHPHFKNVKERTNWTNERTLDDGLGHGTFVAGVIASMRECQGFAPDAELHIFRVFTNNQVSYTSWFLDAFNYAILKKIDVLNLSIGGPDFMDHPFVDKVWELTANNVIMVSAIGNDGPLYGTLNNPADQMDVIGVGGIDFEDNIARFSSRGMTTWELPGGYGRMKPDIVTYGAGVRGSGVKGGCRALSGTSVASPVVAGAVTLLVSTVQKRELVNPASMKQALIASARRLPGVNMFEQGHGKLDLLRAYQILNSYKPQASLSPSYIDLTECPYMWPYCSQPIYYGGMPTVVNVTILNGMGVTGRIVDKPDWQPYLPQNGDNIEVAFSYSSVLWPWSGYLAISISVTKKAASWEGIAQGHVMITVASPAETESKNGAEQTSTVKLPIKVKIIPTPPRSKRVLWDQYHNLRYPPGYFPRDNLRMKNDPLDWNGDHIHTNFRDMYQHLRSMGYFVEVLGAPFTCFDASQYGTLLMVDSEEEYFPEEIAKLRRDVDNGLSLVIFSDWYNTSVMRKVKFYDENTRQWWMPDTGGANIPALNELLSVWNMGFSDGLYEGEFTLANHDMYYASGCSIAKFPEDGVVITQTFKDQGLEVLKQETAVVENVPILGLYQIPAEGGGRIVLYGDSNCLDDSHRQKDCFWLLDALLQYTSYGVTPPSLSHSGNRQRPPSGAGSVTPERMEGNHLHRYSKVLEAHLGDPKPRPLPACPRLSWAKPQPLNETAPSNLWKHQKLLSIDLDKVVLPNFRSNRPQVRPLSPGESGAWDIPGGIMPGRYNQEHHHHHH

[1] = molecular target: T2, 98 kDa shed form of SKI-1 (sSKI-1) (human, UniProt Q14703 187-996); test: cell-based or functional assay
T2 sequence: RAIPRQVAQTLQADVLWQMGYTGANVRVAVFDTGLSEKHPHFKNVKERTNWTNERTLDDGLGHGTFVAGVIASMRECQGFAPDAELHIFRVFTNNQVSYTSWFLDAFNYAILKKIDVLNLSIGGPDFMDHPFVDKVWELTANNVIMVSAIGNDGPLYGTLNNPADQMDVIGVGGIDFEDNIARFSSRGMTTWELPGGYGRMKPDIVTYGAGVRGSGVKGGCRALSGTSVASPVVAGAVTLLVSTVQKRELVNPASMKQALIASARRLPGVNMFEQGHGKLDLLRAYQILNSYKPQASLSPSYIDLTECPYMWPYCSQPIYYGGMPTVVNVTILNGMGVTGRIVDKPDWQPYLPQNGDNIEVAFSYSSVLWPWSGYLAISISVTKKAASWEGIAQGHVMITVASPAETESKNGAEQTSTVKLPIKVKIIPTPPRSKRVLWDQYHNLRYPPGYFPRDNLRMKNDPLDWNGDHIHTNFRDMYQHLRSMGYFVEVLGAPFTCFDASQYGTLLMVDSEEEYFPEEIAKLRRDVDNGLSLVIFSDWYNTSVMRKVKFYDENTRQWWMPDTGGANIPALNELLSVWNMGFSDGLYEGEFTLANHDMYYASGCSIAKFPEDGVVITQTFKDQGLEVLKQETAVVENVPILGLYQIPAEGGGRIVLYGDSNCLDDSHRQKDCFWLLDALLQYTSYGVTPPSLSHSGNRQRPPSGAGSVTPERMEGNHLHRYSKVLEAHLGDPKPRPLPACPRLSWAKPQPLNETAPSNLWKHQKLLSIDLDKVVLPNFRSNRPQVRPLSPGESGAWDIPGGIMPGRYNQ

BTMD-hSKI-1 = molecular target: T3, BTMD-hSKI-1 (Homo sapiens, UniProt Q14703); assay type: biochemical
T3 sequence (Q14703 187-997 limits assumed): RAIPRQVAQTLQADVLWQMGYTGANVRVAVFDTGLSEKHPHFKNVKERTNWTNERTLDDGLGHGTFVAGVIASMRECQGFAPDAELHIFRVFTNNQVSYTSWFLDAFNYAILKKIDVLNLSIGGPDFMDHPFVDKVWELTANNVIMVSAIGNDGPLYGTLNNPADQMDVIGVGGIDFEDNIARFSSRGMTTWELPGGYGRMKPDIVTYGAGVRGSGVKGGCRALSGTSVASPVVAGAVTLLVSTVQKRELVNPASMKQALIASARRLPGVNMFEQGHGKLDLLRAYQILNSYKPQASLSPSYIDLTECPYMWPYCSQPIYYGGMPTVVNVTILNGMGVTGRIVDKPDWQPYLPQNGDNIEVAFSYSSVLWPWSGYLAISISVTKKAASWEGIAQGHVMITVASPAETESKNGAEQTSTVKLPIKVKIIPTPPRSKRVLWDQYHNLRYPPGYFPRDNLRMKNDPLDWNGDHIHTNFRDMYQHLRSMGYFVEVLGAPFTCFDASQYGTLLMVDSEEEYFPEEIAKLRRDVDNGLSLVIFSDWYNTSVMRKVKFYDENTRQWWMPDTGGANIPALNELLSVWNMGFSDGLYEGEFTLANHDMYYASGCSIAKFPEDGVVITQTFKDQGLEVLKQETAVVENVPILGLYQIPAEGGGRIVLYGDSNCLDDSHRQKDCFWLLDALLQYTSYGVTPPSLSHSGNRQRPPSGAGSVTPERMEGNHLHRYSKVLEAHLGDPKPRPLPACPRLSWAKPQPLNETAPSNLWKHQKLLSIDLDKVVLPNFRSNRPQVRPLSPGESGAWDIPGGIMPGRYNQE

B1: PS3 (SKI-1 prosegment construct extending to Leu197, hexa-His tag) (other)
chain: KKHLGDRLEKKSFEKAPCPGCSHLTLKVEFSSTVVEYEYIVAFNGYFTAKARNSFISSALKSSEVDNWRIIPRNNPSSDYPSDFEVIQIKEKQKAGLLTLEDHPNIKRVTPQRKVFRSLKYAESDPTVPCNETRWSQKWQSSRPLRRASLSLGSGFWHATGRHSSRRLLRAIPRQVAQTLHHHHHH
notes: Bacterial recombinant (pET24b, E. coli BL21); Any vector-derived residues are not described
- Ki (BTMD-SKI-1): 127 nM

B2: peptide XI, Q-hSKI-1 (134-142): Abz-RSLKYAESD-Y(NO2)-A (peptide)
peptide: [2Abz]RSLKYAESD[Tyr(3-NO2)]A-NH2
modifications: N-terminus assumed
SMILES: CC(C)C[C@H](NC(=O)[C@H](CO)NC(=O)[C@H](CCCNC(=N)N)NC(=O)c1ccccc1N)C(=O)N[C@@H](CCCCN)C(=O)N[C@@H](Cc1ccc(O)cc1)C(=O)N[C@@H](C)C(=O)N[C@@H](CCC(=O)O)C(=O)N[C@@H](CO)C(=O)N[C@@H](CC(=O)O)C(=O)N[C@@H](Cc1ccc(O)c([N+](=O)[O-])c1)C(=O)N[C@@H](C)C(N)=O
- kinetic parameters relative to peptide IV [1]: ~16 fold

B3: peptide X, Q-hSKI-1 (132-142): Abz-VFRSLKYAESD-Y(NO2)-A (peptide)
peptide: [2Abz]VFRSLKYAESD[Tyr(3-NO2)]A-NH2
modifications: N-terminus assumed
SMILES: CC(C)C[C@H](NC(=O)[C@H](CO)NC(=O)[C@H](CCCNC(=N)N)NC(=O)[C@H](Cc1ccccc1)NC(=O)[C@@H](NC(=O)c1ccccc1N)C(C)C)C(=O)N[C@@H](CCCCN)C(=O)N[C@@H](Cc1ccc(O)cc1)C(=O)N[C@@H](C)C(=O)N[C@@H](CCC(=O)O)C(=O)N[C@@H](CO)C(=O)N[C@@H](CC(=O)O)C(=O)N[C@@H](Cc1ccc(O)c([N+](=O)[O-])c1)C(=O)N[C@@H](C)C(N)=O
- kinetic parameters relative to peptide IV [1]: ~3 fold

B4: PS2 (SKI-1 prosegment construct extending to Ala188, hexa-His tag) (other)
chain: KKHLGDRLEKKSFEKAPCPGCSHLTLKVEFSSTVVEYEYIVAFNGYFTAKARNSFISSALKSSEVDNWRIIPRNNPSSDYPSDFEVIQIKEKQKAGLLTLEDHPNIKRVTPQRKVFRSLKYAESDPTVPCNETRWSQKWQSSRPLRRASLSLGSGFWHATGRHSSRRLLRAHHHHHH
notes: Bacterial recombinant (pET24b, E. coli BL21); The start at aa 18 follows the sense primer and claim 3; Any vector-derived residues are not described
- Ki (BTMD-SKI-1): 97.5 nM
- inhibitory potency after digestion with carboxypeptidase B to eliminate the His-tag (BTMD-hSKI-1): not affected
- Ki (BTMD-hSKI-1; read-out: Ki(app)): 97 nM
